Target: prostasin (recombinant human, soluble, active two-chain form purified from conditioned medium of CHO cells transfected with full-length prostasin) (human) (UniProt Q16651)
Test: cell-based or functional assay

Row | IC50 (nM), inhibition of prostasin amidolytic activity towards S2765 [nM] | Substance
1 | 66 | sHAI-1B wildtype (soluble hepatocyte growth factor activator inhibitor-1B, entire extracellular domain) (from UniProt O43278 36-465)
2 | > 1000 | Alzheimer's amyloid β protein precursor inhibitor (APPI) (from UniProt P05067 287-344)
3 | 109 | sHAI-1 (obtained from R & D Systems, Inc.) (from UniProt O43278 36-449)

Source: patent US20060210570A1
